Results: IntAct's records for PubMed 27427983

B1: Non-structural maintenance of chromosomes element 3 homolog (Homo sapiens), Q96MG7 (parent)
chain: MLQKPRNRGRSGGQAERDRDWSHSGNPGASRAGEDARVLRDGFAEEAPSTSRGPGGSQGSQGPSPQGARRAQAAPAVGPRSQKQLELKVSELVQFLLIKDQKKIPIKRADILKHVIGDYKDIFPDLFKRAAERLQYVFGYKLVELEPKSNTYILINTLEPVEEDAEMRGDQGTPTTGLLMIVLGLIFMKGNTIKETEAWDFLRRLGVYPTKKHLIFGDPKKLITEDFVRQRYLEYRRIPHTDPVDYEFQWGPRTNLETSKMKVLKFVAKVHNQDPKDWPAQYCEALADEENRARPQPSGPAPSS
partner: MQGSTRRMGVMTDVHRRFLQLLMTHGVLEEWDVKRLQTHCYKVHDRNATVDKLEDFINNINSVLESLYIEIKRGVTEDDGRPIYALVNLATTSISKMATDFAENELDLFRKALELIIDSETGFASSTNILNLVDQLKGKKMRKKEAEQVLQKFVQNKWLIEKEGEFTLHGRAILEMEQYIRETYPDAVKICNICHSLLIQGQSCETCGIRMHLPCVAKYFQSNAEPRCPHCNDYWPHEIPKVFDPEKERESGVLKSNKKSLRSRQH
B2: Non-structural maintenance of chromosomes element 3 homolog (Homo sapiens), Q96MG7 (parent)
chain: B1 chain
partner: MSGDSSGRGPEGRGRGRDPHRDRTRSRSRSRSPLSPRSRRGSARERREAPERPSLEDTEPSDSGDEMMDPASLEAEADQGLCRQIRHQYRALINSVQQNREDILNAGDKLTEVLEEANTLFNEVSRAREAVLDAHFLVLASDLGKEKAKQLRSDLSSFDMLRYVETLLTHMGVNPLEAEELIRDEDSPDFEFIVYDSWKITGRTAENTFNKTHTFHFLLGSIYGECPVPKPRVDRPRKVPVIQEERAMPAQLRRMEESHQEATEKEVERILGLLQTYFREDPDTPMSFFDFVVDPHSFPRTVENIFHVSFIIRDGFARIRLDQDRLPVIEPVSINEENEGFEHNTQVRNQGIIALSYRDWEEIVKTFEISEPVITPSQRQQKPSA
B3: Non-structural maintenance of chromosomes element 3 homolog (Homo sapiens), Q96MG7 (parent)
chain: B1 chain
partner: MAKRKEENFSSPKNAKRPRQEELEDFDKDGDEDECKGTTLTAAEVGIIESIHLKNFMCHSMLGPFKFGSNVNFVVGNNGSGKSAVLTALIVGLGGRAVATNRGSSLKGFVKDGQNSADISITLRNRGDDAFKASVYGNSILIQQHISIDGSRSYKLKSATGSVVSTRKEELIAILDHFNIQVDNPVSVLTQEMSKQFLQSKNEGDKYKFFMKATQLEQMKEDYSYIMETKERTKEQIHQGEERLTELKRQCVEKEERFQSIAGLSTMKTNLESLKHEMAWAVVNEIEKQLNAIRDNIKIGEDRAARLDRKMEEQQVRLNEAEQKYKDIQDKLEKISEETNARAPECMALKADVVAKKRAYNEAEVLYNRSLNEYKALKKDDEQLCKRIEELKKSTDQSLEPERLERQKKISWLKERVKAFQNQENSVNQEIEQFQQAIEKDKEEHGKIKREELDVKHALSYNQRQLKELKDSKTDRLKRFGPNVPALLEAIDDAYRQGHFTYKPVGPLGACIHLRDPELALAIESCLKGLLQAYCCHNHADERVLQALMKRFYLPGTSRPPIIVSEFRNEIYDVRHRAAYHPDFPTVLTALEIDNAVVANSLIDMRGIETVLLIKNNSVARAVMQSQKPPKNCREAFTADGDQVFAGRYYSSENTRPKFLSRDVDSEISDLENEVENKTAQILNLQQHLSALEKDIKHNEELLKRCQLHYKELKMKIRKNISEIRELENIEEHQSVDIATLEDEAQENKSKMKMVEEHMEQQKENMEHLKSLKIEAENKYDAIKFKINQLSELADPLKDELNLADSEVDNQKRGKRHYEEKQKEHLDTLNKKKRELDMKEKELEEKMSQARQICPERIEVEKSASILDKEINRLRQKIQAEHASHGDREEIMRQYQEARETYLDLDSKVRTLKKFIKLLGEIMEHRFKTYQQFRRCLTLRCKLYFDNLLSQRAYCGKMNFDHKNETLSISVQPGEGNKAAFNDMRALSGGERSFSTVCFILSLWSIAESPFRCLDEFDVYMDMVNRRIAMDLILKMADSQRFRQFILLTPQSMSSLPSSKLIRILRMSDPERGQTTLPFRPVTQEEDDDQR

Variants of: B1
Conditions: with nse1_human NSMCE1, Q8WV22

Row | Variant | effect of a mutation on the interaction
1 | L97A | disrupting interaction strength
2 | F266A | with no effect
3 | L264F | with no effect
4 | P209L | decreasing interaction strength

Variants of: B1
Conditions: with nse1_human NSMCE1, Q8WV22
Remark: another data set of the same source

Row | Variant | effect of a mutation on the interaction
5 | L264F | decreasing interaction strength

Variants of: B2
Conditions: with nse4a_human NSMCE4A

Row | Variant | effect of a mutation on the interaction
6 | L97A | with no effect
7 | F266A | disrupting interaction strength
8 | P209L | disrupting interaction strength
9 | L264F | disrupting interaction strength

Variants of: B3
Conditions: with smc6_human SMC6, Q96SB8

Row | Variant | effect of a mutation on the interaction
10 | L264F | disrupting interaction strength
